{
  "source": "patent US11957763B2",
  "about": "“Sulfamide linkers for use in bioconjugates” (SYNAFFIX B.V., priority 2016, dated 2024)",
  "format_in_all_cases": "biochemical",
  "key": {"Trastuzumab": {"system": "Trastuzumab", "assay": "Trimming of trastuzumab by EndoSH", "conditions": "0.1 w/w % EndoSH, 37° C., after 1 hour, 25 mM Tris buffer pH 8, MS analysis", "protocol": "Trastuzumab (obtained from Epirus biopharma (Utrecht, The Netherlands)) in 25 mM Tris buffer pH 8), (14 mg/mL) was trimmed using a concentration of either 0.1 or 1 w/w % EndoSH. The reactions, 350 μg trastuzumab (25 μL) and the appropriate amount of EndoSH, were stirred at 37° C. and analyzed by MS analysis overtime, 1 to 3 hours. Samples were subjected to Fabricator treatment prior to analysis.\n(§1) Prior to mass spectral analysis, IgGs were either treated with DTT, which allows analysis of both light and heavy chain, or treated with Fabricator™ (commercially available from Genovis, Lund, Sweden), which allows analysis of the Fc/2 fragment. For analysis of both light and heavy chain, a solution of 20 μg (modified) IgG was incubated for 5 minutes at 37° C. with 100 mM DTT in a total volume of 4 μL. If present, azide-functionalities are reduced to amines under these conditions. For analysis of the Fc/2 fragment, a solution of 20 μg (modified) IgG was incubated for 1 hour at 37° C. with Fabricator™ (1.25 U/μL) in phosphate-buffered saline (PBS) pH 6.6 in a total volume of 10 μL. After reduction or Fabricator-digestion the samples were washed trice with milliQ using an Amicon Ultra-0.5, Ultracel-10 Membrane (Millipore) resulting in a final sample volume of approximately 40 μL. Next, the samples were analyzed by electrospray ionization time-of-flight (ESI-TOF) on a JEOL AccuTOF. […]"}, "[1]": {"system": "Trastuzumab having high-mannose glycans", "assay": "Trimming of high-mannose trastuzumab by fusion protein EndoSH", "conditions": "1 w/w % EndoSH, 37° C., after 3 hours, 25 mM Tris buffer pH 8, MS analysis", "protocol": "Trastuzumab having high-mannose glycans (obtained via transient expression in CHO K1 cells in the presence of kifunensine performed by Evitria (Zurich, Switzerland)) (14 mg/mL) in 25 mM Tris buffer pH 8, was trimmed using a concentration of either 0.1 or 1 w/w % EndoSH. The reactions, 350 μg high-mannose trastuzumab (25 μL) and the appropriate amount of EndoSH, were stirred at 37° C. and analyzed by MS analysis over time, 1-3 hours. Samples were subjected to Fabricator treatment prior to analysis.\nas §1, with “After reduction or Fabricator-digestion the samples were washed trice with milliQ using an Amicon Ultra-0.5, Ultracel-10 Membrane (Millipore) resulting in a final sample volume of approximately 40 μL.” left out"}, "glycans on glycoproteins": {"system": "glycans on glycoproteins", "assay": "pH at which the endoglycosidase activity operates", "description": "Trimming of glycoproteins is known in the art, from e.g. WO 2007/133855 or WO 2014/065661."}},
  "data": [
    {"molecule": "EndoSH: fusion enzyme of endoglycosidases EndoS and EndoH connected via a -(G4S)3-(His)6-(G4S)3- linker, SEQ ID NO: 1 (protein, Fusion protein EndoSH) MPSIDSLHYLSENSKKEFKEELSKAGQESQKVKEILAKAQQADKQAQELAKMKIPEKIPMKPLHGPLYGGYFRTWHDKTSDPTEKDKVNSMGELPKEVDLAFIFHDWTKDYSLFWKELATKHVPKLNKQGTRVIRTIPWRFLAGGDNSGIAEDTSKYPNTPEGNKALAKAIVDEYVYKYNLDGLDVDVEHDSIPKVDKKEDTAGVERSIQVFEEIGKLIGPKGVDKSRLFIMDSTYMADKNPLIERGAPYINLLLVQVYGSQGEKGGWEPVSNRPEKTMEERWQGYSKYIRPEQYMIGFSFYEENAQEGNLWYDINSRKDEDKANGINTDITGTRAERYARWQPKTGGVKGGIFSYAIDRDGVAHQPKKYAKQKEFKDATDNIFHSDYSVSKALKTVMLKDKSYDLIDEKDFPDKALREAVMAQVGTRKGDLERFNGTLRLDNPAIQSLEGLNKFKKLAQLDLIGLSRITKLDRSVLPANMKPGKDTLETVLETYKKDNKEEPATIPPVSLKVSGLTGLKELDLSGFDRETLAGLDAATLTSLEKVDISGNKLDLAPGTENRQIFDTMLSTISNHVGSNEQTVKFDKQKPTGHYPDTYGKTSLRLPVANEKVDLQSQLLFGTVTNQGTLINSEADYKAYQNHKIAGRSFVDSNYHYNNFKVSYENYTVKVTDSTLGTTTDKTLATDKEETYKVDFFSPADKTKAVHTAKVIVGDEKTMMVNLAEGATVIGGSADPVNARKVFDGQLGSETDNISLGWDSKQSIIFKLKEDGLIKHWRFFNDSARNPETTNKPIQEASLQIFNIKDYNLDNLLENPNKFDDEKYWITVDTYSAQGERATAFSNTLNNITSKYWRVVFDTKGDRYSSPVVPELQILGYPLPNADTIMKTVTTAKELSQQKDKFSQKMLDELKIKEMALETSLNSKIFDVTAINANAGVLKDCIEKRQLLKKGGGGSGGGGSGGGGSHHHHHHEFGGGGSGGGGSGGGGSAPAPVKQGPTSVAYVEVNNNSMLNVGKYTLADGGGNAFDVAVIFAANINYDTGTKTAYLHFNENVQRVLDNAVTQIRPLQQQGIKVLLSVLGNHQGAGFANFPSQQAASAFAKQLSDAVAKYGLDGVDFDDEYAEYGNNGTAQPNDSSFVHLVTALRANMPDKIISLYNIGPAASRLSYGGVDVSDKFDYAWNPYYGTWQVPGIALPKAQLSPAAVEIGRTSRSTVADLARRTVDEGYGVYLTYNLDGGDRTADVSAFTRELYGSEAVRTP", "values": [
      {"measurement": "conversion to the trimmed product, trimmed to the core GlcNAc sugar residue", "setting": "Trastuzumab", "result": "Full conversions"},
      {"measurement": "conversion to the trimmed product, trimmed to the core GlcNAc sugar residue", "setting": "[1]", "result": "Full conversions"},
      {"measurement": "pH at which both activities (EndoS and EndoH) of the fusion enzyme function smoothly", "setting": "glycans on glycoproteins", "result": "7-8"}
    ]}
  ]
}
